Measured values from PMC2914802.

Columns and labels:
Assay in all cases: steady-state hydrolysis kinetics
Format in all cases: biochemical, Burkholderia lata
Settings in all cases: Zn2+; pH 8.0
[1] = substrate: CC(=O)N1CCC[C@H]1C(=O)O
[2] = substrate: CCC(=O)N1CCC[C@H]1C(=O)O
[3] = substrate: CCCC(=O)N1CCC[C@H]1C(=O)O

B1: Sgx9260c (Burkholderia lata) (protein)
chain: MTITVLQGGNVLDLERGVLLDHHHVVIDGDRIVEVTDRPVDFPNAQVIDVRGKTVMPGFIDCHVHVLASNANLGANATQPNILAAIRSLPILDAMLSRGFTSVRDAGGADWSLMQAVETGLVSGPRIFPSGKALSQTGGHGDFRPRGDLLEPCSCCFRTGAIARVVDGVEGVRLAVREEIQKGATQIKIMASGGVASPTDPIANTQYSEDEIRAIVDEAEAANTYVMAHAYTGRAIARAVRCGVRTIEHGNLVDEAAAKLMHEHGAFVVPTLVTYDALAKHGAEFGMPPESVAKVASVQQKGRESLEIYANAGVKMGFGSDLLGEMHEFQSGEFRIRAEVLGNLEALRSATTVAAEIVNMQGQLGVVAAGAIADLVVLDGNPLEDIGVVAGQGERVEYVLQRGRIVKAREFRRTMARE
Km [1]: 800 ± 100 µM | kcat [1]: 227 ± 9 s⁻¹ | kcat/Km [1]: 280000 M⁻¹ s⁻¹ | Km [2]: 1900 ± 200 µM | kcat [2]: 141 ± 6 s⁻¹ | kcat/Km [2]: 74000 M⁻¹ s⁻¹ | Km [3]: 2600 ± 300 µM | kcat [3]: 146 ± 6 s⁻¹ | kcat/Km [3]: 56000 M⁻¹ s⁻¹
